Numbering of substitutions follows the chain as printed. In names and notes the source's numbering stands.
Key:
[1] = molecular target: moesin FERM domain, 1-297 (UniProt P26038); test: SPR competition assay
[2] = test system: THP-1 cells over TNF-α-activated HUVEC; test: L-selectin-GFP/RFP clustering in mid-TEM under flow, FLIM/FRET; type: cell-based, human
Procedure: (A) Line scanning confocal microscopic image of THP-1 cells, stably expressing GFP, captured in mid-TEM—following 15 min of perfusion over TNF-α-activated HUVEC monolayers. […] “Top” and “Base,” respectively, represent the apical and basolateral aspect of the endothelium (x63 objective lens, Leica SP5). Scale bar = 24 μm. (B,C) THP-1 cells expressing WT, SSAA, or SSDD L-selectin-GFP/RFP were perfused over TNF-α-activated HUVEC and fixed after 15 min of perfusion. […] Lifetime images taken of at least 45 cells and analyzed over 3 independent experiments was quantified and expressed as FRET efficiency. Images representative of three independent experiments, where at least 45 cells of each group was analyzed at two optical sections, Top and Base, as indicated in the cartoon of a yellow monocyte captured in mid-TEM crossing a red endothelium. Individual GFP channel and lifetime images are provided for each cell line. The lifetime of fluorescence is expressed in a pseudocolour scale from red (low lifetime with a very high probability of interaction) to blue (high lifetime with a very low probability of interaction). Statistics: unpaired student t-test ***p ≤ 0.001.
Cells expressing WT L-selectin-GFP/RFP were treated for 30 min with 10 μM TAPI-0 and subsequently perfused over TNF-activated HUVEC monolayers for 15 min prior to fixation and analysis for FRET by FLIM (see Materials and Methods for more detail). […] (B) Images representative of three independent experiments, where at least 45 cells of each group were analyzed at two optical sections–non-transmigrated uropods (Top) and transmigrated pseudopods (Base). GFP fluorescence channel and lifetime images are provided for each cell line. The lifetime of fluorescence is expressed in a pseudocolour scale from red (low lifetime with a very high probability of interaction) to blue (high lifetime with a very low probability of interaction). […]
FLIM measurement of FRET was performed with a multiphoton microscope system as described previously ([8], [23]). […] Fluorescence lifetime imaging capability was provided by time-correlated, single-photon counting electronics (SPC 700; Becker & Hickl). […] Data were analyzed as previously described ([65]). The FRET efficiency is related to the molecular separation of donor and acceptor and the fluorescence lifetime of the interacting fraction by: […]
where ηFRET is the FRET efficiency, R0 is the Förster radius, r is the molecular separation, τFRET is the lifetime of the interacting fraction and τd is the lifetime of the donor in the absence of an acceptor. The donor- only control is used as the reference against which all of other lifetimes are calculated in each experiment. τFRET and τd can also be taken to be the lifetime of the interacting fraction and non-interacting fraction, respectively. […]

[3] = test system: THP-1 cells over TNF-α-activated HUVEC; test: Pseudopod protrusion scoring in TEM under flow; type: cell-based, human
Procedure: (A) The number of protrusions formed over this period was scored as: zero, one, two, or >2. (B) The percentages of cells bearing these protrusions were scored at specific time points: 6 min (blue bars), 15 min (green bars), or 25 min (red bars). Supplementary Videos 2, 3, 4 provide examples of cells producing a range of protrusions as TEM proceeds. Data represent SEM of 3 fields of view per flow experiment, conducted on three separate occasions, and at least 180 cells analyzed per group. Values of the vertical lines indicate the differences in protrusion number (specifically “zero” and “two”) corresponding to each of the cell lines, for which statistical significance is shown in Table 1.
All flow experiments were performed using a 35 mm diameter Glycotech parallel plate flow chamber. Perfusion experiments were performed at 1.5 dyn/cm^2 using a Harvard Apparatus 2000 PHD syringe pump. Perfusion media consisted of: RPMI supplemented with L-glutamine, 10% FCS, 1% penicillin/streptomycin, 50 μM β-mercaptoethanol, and 25 mM HEPES. Human Umbilical Vein Endothelial Cells (HUVEC–Lonza) were seeded onto 35 mm diameter glass coverslips (no. 1 thickness; VWR) that were pre-coated with 10 μg/mL fibronectin (37°C for at least 1 h). Before each perfusion assay, HUVEC were stimulated overnight (16 h) with 10 ng/mL carrier-free recombinant human TNF-α (R&D Systems). Each perfusion assay was performed by injecting a bolus of cells for 6 min, followed by just perfusion media (without cells) for the […]. THP-1 cells were perfused at a density of 0.5 ×10^6 cells per mL. THP-1 cells treated with 10 μM TAPI-0 required a preincubation time of 10 min at 37°C before perfusion over TNF-α-activated HUVEC. Note that 10 μM TAPI-0 was also supplemented in the perfusate. Stills were acquired once every 10 seconds using 10 × objective lens.

Molecule: mouse L-selectin cytoplasmic tail (from UniProt P18337) mouse pS364 tail peptide
- binding against the reference ([1]; reference: mouse non-phosphorylated tail peptide (NPP), sites S364): lost

Molecule: L-selectin cytoplasmic tail, 356-372 (from UniProt P14151) pS364 tail peptide
- binding against the reference ([1]; reference: non-phosphorylated tail peptide (NPP), sites S364): lost

Molecule: L-selectin cytoplasmic tail, 356-372 (from UniProt P14151) pS367 tail peptide
- binding against the reference ([1]; reference: non-phosphorylated tail peptide (NPP), sites S367): same

Molecule: CC(C)C[C@H](CC(=O)NO)C(=O)N[C@@H](Cc1ccc2ccccc2c1)C(=O)N[C@@H](C)C(N)=O [TAPI-0, reference compound]
- subcellular distribution of WT L-selectin clustering during TEM with sheddase inhibitor ([2]; 10 μM TAPI-0 pretreatment and in perfusate, WT L-selectin-GFP/RFP, 15 min perfusion): a large majority of L-selectin clustering had relocated from transmigrated pseudopods to non-transmigrated uropods

B1: SSDD: L-selectin with phospho-mimicking aspartates at Ser^364 and Ser^367 (protein)
chain: WTYHYSEKPMNWQRARRFCRDNYTDLVAIQNKAEIEYLEKTLPFSRSYYWIGIRKIGGIWTWVGTNKSLTEEAENWGDGEPNNKKNKEDCVEIYIKRNKDAGKWNDDACHKLKAALCYTASCQPWSCSGHGECVEIINNYTCNCDVGYYGPQCQFVIQCEPLEAPELGTMDCTHPLGNFSFSSQCAFSCSEGTNLTGIEETTCGPFGNWSSPEPTCQVIQCEPLSAPDLGIMNCSHPLASFSFTSACTFICSEGTELIGKKKTICESSGIWSNPSPICQKLDKSFSMIKEGDYNPLFIPVAVMVTAFSGLAFIIWLARRLKKGKKDKRDMNDPY
modifications: left off: eGFP (donor copy) or mCherry (acceptor copy, called RFP), C-terminal, kept
- subcellular distribution of L-selectin clustering during TEM (FLIM/FRET) ([2]; 15 min perfusion at 1.5 dyn/cm^2, fixed in mid-TEM, Top = non-transmigrated uropods, Base = transmigrated pseudopods, at least 45 cells, 3 experiments, no TAPI-0): lacked any signs of clustering during TEM

B2: S364A: L-selectin with Ser^364 mutated to alanine, GFP-tagged, expressed in THP-1 cells (protein, UniProt P14151 39-372, looked up, variant S364A)
L-selectin: B1 chain with D326A, D329S
modifications: C-terminal GFP tag
- protrusive activity profile in TEM (in words) ([3]; 6, 15 and 25 min of flow over TNF-α-activated HUVEC): produced a profile of protrusive activity that was similar to cells expressing WT L-selectin
- cells with 2 protrusions ([3]; 15 min time point, mean of 3 fields of view per flow experiment, three occasions, at least 180 cells per group, significance ** S367A p ≤ 0.01 (Tukey), % printed): 32.9%
- cells with 0 protrusions ([3]; 15 min time point, mean of 3 fields of view per flow experiment, three occasions, at least 180 cells per group, significance *** S367A p ≤ 0.001, ** SSAA p ≤ 0.01 (Tukey), % printed): 11.3%

Reference: paper PMC6774396 (Frontiers in Immunology, 2019)
